Test results reported in patent US20160251436A1 (PD 1 ACQUISITION GROUP, published 2016).

T1: recombinant soluble extracellular domain (ECD) of ICOS (inducible T-cell costimulator) (R&D Systems) (UniProt Q9Y6W8 21-140, limits assumed)
T1 construct: extracellular domain
T1 sequence (looked up): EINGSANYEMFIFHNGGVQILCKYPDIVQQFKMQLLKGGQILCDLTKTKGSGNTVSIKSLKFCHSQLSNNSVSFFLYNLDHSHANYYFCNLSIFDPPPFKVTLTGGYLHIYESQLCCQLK


Experiments:
[1] = molecular target: human Programmed Death-1 (PD-1) expressed on the cell surface (human) (UniProt Q15116); assay: flow cytometry blocking assay: HEK293 cells expressing PD-1 incubated with 10 µg/ml isotype control, washed, stained with PD-L1-Ig Alexa-488; negative control of blocking
human Programmed Death-1 (PD-1) expressed on the cell surface (human), sequence (Q15116 25-288): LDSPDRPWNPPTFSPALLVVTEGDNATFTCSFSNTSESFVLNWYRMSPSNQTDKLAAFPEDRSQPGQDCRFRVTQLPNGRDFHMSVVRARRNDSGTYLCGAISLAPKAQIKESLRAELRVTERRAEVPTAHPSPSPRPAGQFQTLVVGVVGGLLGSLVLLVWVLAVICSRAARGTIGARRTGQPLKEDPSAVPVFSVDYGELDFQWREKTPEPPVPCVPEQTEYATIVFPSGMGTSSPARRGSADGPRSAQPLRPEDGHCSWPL

[2] = molecular target: T2, recombinant soluble extracellular domain (ECD) of PD-1 (R&D Systems) (UniProt Q15116 25-170); assay: ELISA, PD-1 ECD coated on the plate, antibody titrated from about 0.003 to about 13 nM, OD 450 nm
T2 construct: extracellular domain; also called PD-1 ECD
T2 sequence (Q15116 25-170): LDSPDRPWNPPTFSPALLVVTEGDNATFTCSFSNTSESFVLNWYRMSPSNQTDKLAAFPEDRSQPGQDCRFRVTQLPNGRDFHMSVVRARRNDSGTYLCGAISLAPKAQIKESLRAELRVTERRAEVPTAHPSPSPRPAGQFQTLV
Method: (§1) To assess selectivity of the anti-PD-1 antibodies, ELISA was used to generate dose response curves for binding of the anti-PD-1 antibodies to several immunomodulatory cell surface proteins. Recombinant soluble extracellular domains (ECDs) of ICOS (inducible T-cell costimulator), PD-1, CD28 or CTLA4 (R&D Systems, Minneapolis, Minn.) were coated onto ELISA assay plates. Binding of each anti-PD-1 antibody and each control antibody to each target protein was then assessed over a range of antibody concentrations (FIGS. 9A-9D).

[3] = molecular target: T3, recombinant soluble extracellular domain (ECD) of CTLA4 (R&D Systems) (UniProt P16410 36-161, limits assumed); assay: ELISA, CTLA4 ECD coated on the plate, OD 450 nm; anti-CTLA4 as positive control
T3 construct: extracellular domain
T3 sequence (P16410 36-161 limits assumed): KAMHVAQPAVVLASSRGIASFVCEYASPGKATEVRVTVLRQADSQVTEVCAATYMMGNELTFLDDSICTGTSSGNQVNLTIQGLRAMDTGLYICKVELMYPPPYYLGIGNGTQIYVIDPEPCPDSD
Method: as §1

[4] = molecular target: T4, recombinant soluble extracellular domain (ECD) of CD28 (R&D Systems) (UniProt P10747 19-152, limits assumed); assay: ELISA, CD28 ECD coated on the plate, OD 450 nm; anti-CD28 as positive control
T4 construct: extracellular domain
Method: as §1

[5] = molecular target: T1, recombinant soluble extracellular …; assay: ELISA, ICOS ECD coated on the plate, OD 450 nm; anti-ICOS as positive control
Method: as §1

[6] = molecular target: T5, soluble extracellular domain of human PD-1 (human, UniProt Q15116 25-170); assay: BLI (ForteBio Octet Red), antibody on the biosensor, soluble PD-1 ECD as analyte
T5 construct: extracellular domain
T5 sequence (Q15116 25-170): as the sequence (Q15116 25-170) above
Method: Biophysical characteristics of certain anti-PD-1 antibodies were analyzed by biolayer interferometry (BLI), using the ForteBio Octet Red system (Pall Corporation, Menlo Park, Calif.). The antibodies were immobilized on BLI biosensors and then incubated with the soluble extracellular domain of human PD-1. Using standard biophysics methods, apparent on-rates and off-rates were then inferred for PD-1 with anti-PD-1 antibodies.

[7] = molecular target: T6, human Programmed Death-1 (PD-1) expressed on the cell surface (human, UniProt Q15116 25-288); assay: cell-based or functional assay
T6 sequence (Q15116 25-288): as the sequence (Q15116 25-288) above

[8] = molecular target: T6, human Programmed Death-1 (PD-1) …; assay: cell-based or functional assay; remark: listed apart in the source
[9] = molecular target: T6, human Programmed Death-1 (PD-1) …; assay: cell-based or functional assay; remark: listed apart in the source
[10] = molecular target: T6, human Programmed Death-1 (PD-1) …; assay: cell-based or functional assay; remark: listed apart in the source
[11] = molecular target: human Programmed Death-1 (PD-1) expressed on the cell surface (human) (UniProt Q15116); assay: flow cytometry blocking assay: HEK293 cells expressing PD-1 incubated with 10 µg/ml antibody, washed, stained with PD-L1-Ig Alexa-488 as the blocked ligand
[12] = molecular target: human Programmed Death-1 (PD-1) expressed on the cell surface (human) (UniProt Q15116); assay: cell-based or functional assay
[13] = molecular target: recombinant soluble extracellular domain (ECD) of PD-1 (R&D Systems) (UniProt Q15116); assay: ELISA, PD-1 ECD coated on the plate, antibody titrated from about 0.003 to about 13 nM, OD 450 nm
recombinant soluble extracellular domain (ECD) of PD-1 (R&D Systems) (UniProt Q15116), sequence (Q15116 25-170): as the sequence (Q15116 25-170) above

Molecule	EC50 (read off the curve) [2]	binding result [3]	binding result [4]	binding result [5]	Kd [6]	koff [6]	kon [6]	CD4 IFNγ % positive [7]	CD8 IFNγ % positive [7]	CD8 TNFα % positive [7]	Fold Induction IFN-γ (relative to isotype control; NSCLC biopsy cells, 20 µg/mL) [8]	other results
isotype control mouse IgG1 (antibody)	–	–	–	–	–	–	–	–	–	–	–	percent of cells in gate Alexa Fluor 488-A+ (PD-L1-Ig staining after the antibody) [1]: 37.6%; percent of cells in gate Alexa Fluor 488-A- (PD-L1-Ig staining after the antibody) [1]: 62.4%
100388_D4VH3_100389_D4VK5 (antibody, V domains shown, Mouse variable regions; cloned into pFUSE-CHIg-mG1 (murine IgG1 Fc), expressed in HEK293) VH: EVQLQESGAELVRPGASVTLSCKASGYTFTDYEMHWVKQTPVHGLEWIGVIDPGTGGTAYNQKFKVKALLTADKSSNTAYMELRSLTSEDSAVYYCTSEKFGSNYYFDYWGQGTTLTVSS VL: DIVITQTPLSLPVSLGDQASISCRSSQTIVHSDGNTYLEWYLQKPGQSPKLLIYKVSNRFSGVPDRFSGSGSGTDFTLKISRVEAEDLGVYYCFQGSHVPLTFGAGTKLEIK	~0.05 nM	no binding (tested: about 13 nM)	no binding (tested: about 13 nM)	no binding (tested: about 13 nM)	2.69 nM	0.000999 s⁻¹	371000 M⁻¹ s⁻¹	21.2 % positive	31.2 % positive	8.56 % positive	–	–
100413_E1VH9_100414_E1VK5 (antibody, V domains shown, Mouse variable regions; cloned into pFUSE-CHIg-mG1 (murine IgG1 Fc), expressed in HEK293) VH: EVQLQESGPSLVQPSQSLSITCTVSGFSLTSYGVHWVRQSPGKGLEWLGVIWRGGNTDYNAAFMSRLSITKDNSKSQVFFKMNSLQADDTAIYYCAASMIGGYWGQGTTLTVSS VL: DIVLTQTPLSLPVSLGDQASISCRSSQSIVHSNGNTYLEWYLQKPGQSPKLLIYKVSNRFSGVPDRFSGSGSGTNFTLKISRVEAEDLGVYYCFQGSHVPLTFGAGTKLELK	~0.06 nM	no binding (tested: about 13 nM)	no binding (tested: about 13 nM)	no binding (tested: about 13 nM)	58.9 nM	0.0299 s⁻¹	507000 M⁻¹ s⁻¹	20.2 % positive	27 % positive	11.1 % positive	–	–
388D4-2 (100388_D4_HC3 + 100389_D4_LC3) (antibody, V domains shown) VH: EVQLVQSGAEVKKPGASVKVSCKASGYTFTDYEMHWVRQAPGQRLEWMGVIDPGTGGTAYNQKFQGRVTITADKSASTAYMELSSLRSEDTAVYYCTSEKFGSNYYFDYWGQGTLVTVSS VL: DIVMTQTPLSSPVTLGQPASISCRSSQTIVHSDGNTYLEWYQQRPGQPPRLLIYKVSNRFSGVPDRFSGSGAGTDFTLKISRVEAEDVGVYYCFQGSHVPLTFGQGTKLEIK	–	–	–	–	–	–	–	–	–	–	7.58 fold	Fold Induction IFN-γ (relative to anti-CD3 + anti-CD28 only; antibody at 5 ug/mL) [9]: 2.06 fold; Fold Induction IFN-γ (relative to anti-CD3 + anti-CD28 only; antibody at 10 ug/mL) [9]: 1.82 fold
388D4-3 (100388_D4_HC1 + 100389_D4_LC3) (antibody, V domains shown) VH: EVQLVQSGAEVKKPGASVKVSCKASGYTFTDYEMHWVRQAPGQGLEWMGIIDPGTGGTAYNQKFQGRVTMTADKSTSTVYMELSSLRSEDTAVYYCTSEKFGSNYYFDYWGQGTLVTVSS VL: DIVMTQTPLSSPVTLGQPASISCRSSQTIVHSDGNTYLEWYQQRPGQPPRLLIYKVSNRFSGVPDRFSGSGAGTDFTLKISRVEAEDVGVYYCFQGSHVPLTFGQGTKLEIK	–	–	–	–	–	–	–	–	–	–	7.2 fold	–
244C8-1 (100244_C8_HC1 + 100245_C8_LC1) (antibody, V domains shown) VH: QVQLVQSGAEVKKPGASVKVSCKASGYTFTSYWMHWVRQAPGQGLEWMGMIDPSNSETSLNQKFQGRVTMTVDKSTNTVYMELSSLRSEDTAVYYCARSRGNYAYEMDYWGQGTLVTVSS VL: EIVLTQSPATLSLSPGERATLSCRASSSVSSNYLYWYQQKPGQAPRLLIYSTSNRATGIPARFSGSGSGTDYTLTISSLEPEDFAVYYCHQWSSYPPTFGQGTKLEIK	–	–	–	–	–	–	–	–	–	–	8.04 fold	–
244C8-3 (100244_C8_HC2 + 100245_C8_LC1) (antibody, V domains shown) VH: EVQLVQSGAEVKKPGASVKVSCKASGYTFTSYWMHWVRQAPGQGLEWMGMIDPSNSETSLNQKFQGRVTLNVDKSTNTAYMELSSLRSEDTAVYYCARSRGNYAYEMDYWGQGTLVTVSS VL: EIVLTQSPATLSLSPGERATLSCRASSSVSSNYLYWYQQKPGQAPRLLIYSTSNRATGIPARFSGSGSGTDYTLTISSLEPEDFAVYYCHQWSSYPPTFGQGTKLEIK	–	–	–	–	–	–	–	–	–	–	7.79 fold	–
244C8-2 (100244_C8_HC1 + 100245_C8_LC3) (antibody, V domains shown) VH: QVQLVQSGAEVKKPGASVKVSCKASGYTFTSYWMHWVRQAPGQGLEWMGMIDPSNSETSLNQKFQGRVTMTVDKSTNTVYMELSSLRSEDTAVYYCARSRGNYAYEMDYWGQGTLVTVSS VL: DIVLTQSPGTLSLSPGEKVTLSCRASSSVSSNYLYWYQQKPGQAPRLVIYSTSNLATGIPDRFSGSGSGTDYTLTISRLEPEDFAVYFCHQWSSYPPTFGQGTKVEIK	–	–	–	–	–	–	–	–	–	–	7.76 fold	Fold Induction IFN-γ (normalized to nivolumab; 20 µg/mL total antibody) [10]: 1.77 fold; Fold Induction IFN-γ (relative to anti-CD3 + anti-CD28 only; antibody at 5 ug/mL) [9]: 2.66 fold; Fold Induction IFN-γ (relative to anti-CD3 + anti-CD28 only; antibody at 10 ug/mL) [9]: 2.81 fold
100246_A10VH1_100247_A10VK3 (antibody, V domains shown, Mouse variable regions; cloned into pFUSE-CHIg-mG1 (murine IgG1 Fc), expressed in HEK293) VH: EVQLQESGPGLVKPSQSLSLTCTVTGYSITSDYAWNWIRQFPGNKLEWMGYITYSGSPTYNPSLKSQFSITRDTSKNQFFLQLNSLTTEDTATYYCARGLGGHYFDYWGQGTTLTVSS VL: DIVLTQSPDTLSVTPGDRVSLSCRASQSISDYLHWYQQKSHESPRLLIKYASQSISGIPSRFSGSGSGSDFTLSINSVEPEDVGVYYCQNGHSYPYTFGGGTKLELK	~0.04 nM	no binding (tested: about 13 nM)	no binding (tested: about 13 nM)	no binding (tested: about 13 nM)	76.4 nM	0.0123 s⁻¹	161000 M⁻¹ s⁻¹	20.3 % positive	26.2 % positive	14.9 % positive	–	–
100244_C8VH3_100245_C8VK5 (antibody, V domains shown, Mouse variable regions; cloned into pFUSE-CHIg-mG1 (murine IgG1 Fc), expressed in HEK293) VH: EVQLQESGPELVRPGASVKMSCKASGYTFTSYWMHWVKQRPGQGLEWIGMIDPSNSETSLNQKFKDKATLNVDKSTNTAYMQLSSLTSEDSAVYYCARSRGNYAYEMDYWGQGTSVTVSS VL: DIVITQTTAIMSASPGEKVTLTCSASSSVSSNYLYWYQQRPGSSPKLWIYSTSNLASGVPARFSGSGSGTSYSLTISSMEAEDAASYFCHQWSSYPPTFGSGTKLEIK	~0.03 nM	no binding (tested: about 13 nM)	no binding (tested: about 13 nM)	no binding (tested: about 13 nM)	15.1 nM	0.00322 s⁻¹	213000 M⁻¹ s⁻¹	9.64 % positive	19.9 % positive	14.5 % positive	–	–
mouse anti-PD-1 cl. EH12.2H7 (antibody, from another filing, V domains shown) VH: QVQLQQSGAELAKPGASVQMSCKASGYSFTSSWIHWVKQRPGQGLEWIGYIYPSTGFTEYNQKFKDKATLTADKSSSTAYMQLSSLTSEDSAVYYCARWRDSSGYHAMDYWGQGTSVTVSS VL: DIVLTQSPASLTVSLGQRATISCRASQSVSTSGYSYMHWYQQKPGQPPKLLIKFGSNLESGIPARFSGSGSGTDFTLNIHPVEEEDTATYYCQHSWEIPYTFGGGTKLEIK	–	–	–	–	–	–	–	–	–	–	–	percent of cells in gate Alexa Fluor 488-A+ (PD-L1-Ig staining after the antibody) [11]: 10.3%; percent of cells in gate Alexa Fluor 488-A- (PD-L1-Ig staining after the antibody) [11]: 89.7%; CD4 IFNγ % positive [12]: 12.8 % positive; CD8 IFNγ % positive [12]: 19.5 % positive; CD8 TNFα % positive [12]: 14.1 % positive; EC50 (read off the curve) [13]: 0.02 nM
